To fix the notation:
B1: cyclo[D-Ala2(-CH=CH-)Ala5]Dyn A-(1-11)NH2 cis (3) (peptide)
chain: YAGFARRIRPK
modifications: D-Ala2, cis -CH=CH- bridge between residues 2 and 5 side chains, C-terminal amide

For one test, the target named is T1, delta opioid receptor (Mus musculus, UniProt P32300).
T1 chain: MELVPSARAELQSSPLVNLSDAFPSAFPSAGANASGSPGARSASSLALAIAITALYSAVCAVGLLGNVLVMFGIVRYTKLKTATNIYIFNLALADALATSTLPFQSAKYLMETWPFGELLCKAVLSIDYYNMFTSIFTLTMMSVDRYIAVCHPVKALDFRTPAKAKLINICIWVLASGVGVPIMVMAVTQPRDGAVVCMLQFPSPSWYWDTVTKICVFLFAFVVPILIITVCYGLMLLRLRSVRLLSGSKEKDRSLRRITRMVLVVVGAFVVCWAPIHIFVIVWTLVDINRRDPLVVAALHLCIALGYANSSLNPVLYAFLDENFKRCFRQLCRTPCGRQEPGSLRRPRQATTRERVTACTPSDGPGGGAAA
Description: radioligand competition. For orientation: In a radioligand displacement assay an active substance lowers the binding of a labelled ligand.
Regarding YAGFARRIRPK (trans -CH=CH- bridge between Ala2 and Ala5 side chains, C-terminal amide) [cyclo[Ala2(-CH=CH-)Ala5]Dyn A-(1-11)NH2 trans (2)], the Ki turned out to be 1130 nM.

YAGFARRIRPK (cis -CH=CH- bridge between Ala2 and Ala5 side chains, C-terminal amide) [cyclo[Ala2(-CH=CH-)Ala5]Dyn A-(1-11)NH2 cis (1)] showed a Ki of 7670 nM.

As to B1, the affinity, expressed as Ki, was 9.3 nM.

A further test has as its target T2, mu opioid receptor (Rattus norvegicus, UniProt P33535).
T2 chain: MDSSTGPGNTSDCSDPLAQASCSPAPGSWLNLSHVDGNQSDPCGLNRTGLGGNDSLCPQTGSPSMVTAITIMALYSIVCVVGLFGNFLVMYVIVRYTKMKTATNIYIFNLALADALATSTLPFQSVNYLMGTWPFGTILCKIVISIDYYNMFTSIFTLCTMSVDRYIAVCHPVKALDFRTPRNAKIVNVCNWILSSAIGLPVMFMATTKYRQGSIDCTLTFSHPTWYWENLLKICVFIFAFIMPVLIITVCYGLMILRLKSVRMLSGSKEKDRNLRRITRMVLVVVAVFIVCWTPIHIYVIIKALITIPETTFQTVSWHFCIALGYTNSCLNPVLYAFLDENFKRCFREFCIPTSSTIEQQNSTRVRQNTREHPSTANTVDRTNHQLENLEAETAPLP
As to the kind of experiment: radioligand competition.
Regarding YGGFARRARPK (trans -CH=CH- bridge between Ala5 and Ala8 side chains, C-terminal amide) [cyclo[Ala5(-CH=CH-)Ala8]Dyn A-(1-11)NH2 trans (6)], the Ki was found to be 36 nM.

Take YGGFARRARPK (cis -CH=CH- bridge between Ala5 and Ala8 side chains, C-terminal amide) [cyclo[Ala5(-CH=CH-)Ala8]Dyn A-(1-11)NH2 cis (5)]: affinity was put at a Ki of 93 nM.

YAGFARRIRPK (trans -CH=CH- bridge between Ala2 and Ala5 side chains, C-terminal amide) [cyclo[Ala2(-CH=CH-)Ala5]Dyn A-(1-11)NH2 trans (2)] showed a Ki of 180 nM. Against the preceding molecule, the Ki is about 1.9-fold higher.

Turning to YAGFARRIRPK (cis -CH=CH- bridge between Ala2 and Ala5 side chains, C-terminal amide) [cyclo[Ala2(-CH=CH-)Ala5]Dyn A-(1-11)NH2 cis (1)], the Ki was 763 nM.

On to B1, for which affinity was put at a Ki of 2.33 nM. Compared with the last molecule, the Ki is about 330-fold lower.

As a reminder, the Ki is the equilibrium dissociation constant of an inhibitor or competing ligand from its target.
